The assay deals with Tat/FLAG (wild type HIV-1 Tat with FLAG tag, expressed in cells) (HIV-1). The assay is described as follows: cell-based or functional assay.

Data on 1 substance can be found in patent US20110318377A1.

“endogenous Set9 (in Jurkat A2, HEK293 and HeLa cells) (from UniProt Q8WTS6 1-366)” gave a decrease in Tat transactivation of the HIV LTR (luciferase) in HeLa cells after Set9 siRNA of 50 percent.
